Patent publication US20090042782A1, “Diagnostic and therapeutic strategies for conditions associated with the FLJ13639 gene” (priority 2005, published 2009)

B1: P1-TAT: recombinant FLJ13639/P1 protein in frame with HIV TAT protein transduction domain and 6×Histidine tag; amino acid sequence SEQ ID NO:5 (protein)
chain: MRGSHHHHHHGMASMTGGQQMGRDLYDDDDKDRWGSKLGYGRKKRRQRRRGGSTMSGYPYDVPDYAGSMAGTGLESLYRSVVWFAKGLREYTKSGYESACKDFVPHDLEVQIPGRVFLVTGGNSGIGKATALEIAKRGGTVHLVCRDQAPAEDARGEIIRESGNQNIFLHIVDLSDPKQIWKFVENFKQEHKLHVLINNAGCMVNKRELTEDGLEKNFAANTLGVYILTTGLIPVLEKEHDPRVITVSSGGMLVQKLNTNDLQSERTPFDGTMVYAQNKRQQVVLTERWAQGHPAIHFSSMHPGWADTPGVRQAMPGFHARFGDRLRSEAQGADTMLWLALSSAAAAQPSGRFFQDRKPVSTHLPLATASSSPAEEEKLIEILEQLAQTFK

Tests used:
Assay type in all cases: cell-based
[1] = test system: HL60/VCR (Vincristin resistant) cells; experiment: MTT viability assay; conditions: 48 h
Experimental: Viability assays by conventional MTT assay protocol (Promega) were performed at 48 h after the beginning of the experiment.

HL60 cells = experiment: JC-1 mitochondrial membrane potential staining, fluorescence microscopy
Text: FIG. 14A is a graphical representation of green/red fluorescence intensity ratio data measured for treatment of HL60/VDR cells (a vinctrisin resistant cell line) as indicated for the x-axis. * indicates statistical significance.
Disruption of the mitochondrial membrane potential (Δψm) is an early event associated with apoptosis and may be one of several factors responsible for cytochrome c release (17, 18). Using JC-1 mitochondrial potential sensor (Molecular Probes, Inc) staining and fluorescence microscopy, we analyzed the Δψm in VCR (vincristin) treated HL60 cells. In healthy cells, the dye accumulates and aggregates in mitochondria, where it fluoresces bright red. In apoptotic cells, however, it cannot enter mitochondria if the Δψm is altered and fluoresces bright green as a cytoplasmic monomer. Therefore, mitochondria depolarization is indicated by a decrease of the red/green fluorescence intensity ratio.

H520 cells = experiment: Wound healing assay, lung cancer cells; conditions: treated vs not treated, 5 days
Experimental: FIG. 12A is a photographic representation of a wound healing assay performed on lung cancer cell lines. The H520 cells were treated (or not treated) with the FLJP1-TAT and motility of cells was monitored through a light microscope to analyze closing of the created gap.
(§1) This was performed by growing the cells to confluence and forming a “wound” by scoring the culture with a pipette tip. The cells were then treated with P1-TAT and assessed for their ability to close the gap between the two artificially created cell populations.

CD24 expression = CD24 expression by RT-PCR in leukemia cell lines incubated with P1-TAT
Experimental: Reverse transcription was done in 20 μl containing a minimum of 1.25 μg of total RNA, 1 μl of 10 mM of deoxynucleotide triphosphate (NEB, Ipswitch, Mass.), 1 μl of 0.5 μg/μl oligo (dT) 18 (IDT, Coralville, Iowa), 1 μl of 40 U/μl ribonuclease inhibitor (Fermentas, Hanover, Md.), 2 μl of 10×reaction buffer (NEB), and 0.25 μl of 200 U/μl MMLV reverse transcriptase (NEB). After incubation with 1 μl of 5U μl RNase H (NEB) for 20 minutes, multiplex PCR reaction was carried out, allowing for simultaneous detection of CD24 and FLJ13639 expression levels. The primers are: CD 24 (resulting in an amplification product of 300 pb) forward: 5′[…]3′ (SEQ ID NO:12), reverse: 5′[…]3′ (SEQ ID NO:13). The primers for FLJ13639 P1 (resulting in an amplification product of 233 pb) are the same as those described in Example 1. The reactions were of an initial denaturation at 95° C. for 10 minutes, followed by 35 cycles: denaturation, 50 seconds at 95° C., annealing 50 seconds at 54° C. and extension 60 seconds at 75° C. Actin amplification was performed as an internal control, according to the following protocol: 15 seconds at 95° C., 30 seconds at 60° C. and 60 seconds at 75° C.
After 48 hours of incubation, cells were harvested, RNA was extracted and cDNA was used for CD24 expression assessment by RT-PCR.
(§2) The same results were obtained using the OVCAR3 ovarian cancer cell line (not shown).

UoCB1 cells = experiment: Matrigel invasion assay; conditions: 20 μg of P1-TAT for 48 h, treatment versus no treatment
Text: To perform the Matrigel invasion assay, cells were deposited on top of a matrigel well and chemoattractant (fetal bovine serum) solutions were positioned below the matrigel matrix. Only cells with an invasive potential will “travel” toward the chemoattractant solutions through the matrigel.

MCF7 = experiment: Wound healing assay, breast cancer cells; conditions: treated vs not treated
Experimental: FIG. 12B is a wound healing assay as depicted in FIG. 12A performed on breast cancer cells.
as §1

HeLa cells = experiment: Lactic acid production in culture medium; conditions: treated for 3 days vs not treated
Experimental: Mitochondria are well known for their essential role in cell respiration and apoptosis. Cancer cells are known to have altered mitochondrial respiration, where pyruvate is catabolized in the lactic acid fermentation pathway instead of being used in the Krebbs cycle in the mitochondria, which produces energy far more efficiently. […] Culture medium was tested for lactic acid levels.

CD24 protein expression = CD24 protein expression by immunofluorescence; conditions: OM9;22 ALL cell line, 48 hours of treatment
Text: as §2

Molecule | cytotoxicity at 1 µM ([1]; HL60/VCR, Vincristin 1 μM, read-out: reduction of cell viability) | effect on cell viability ([1]; Vincristin 0.1 μM) | green/red fluorescence ratio (HL60 cells; 0.1 ug of VCR alone) | green/red fluorescence ratio (HL60 cells; 1 ug of VCR alone, p<0.01) | motility / closing of the gap (H520 cells) | motility / closing of the gap (H520 cells; listed as FLJ13639P1-TAT) | CD24 expression (CD24 expression; OM9:22, ALL-1, K562, 207 cell lines, 20 μg of P1-TAT (data not shown)) | CD24 expression levels (CD24 expression; UoCB1 cell line, increasing amount of P1-TAT, 48 hours, RT-PCR) | CD24 levels, time-course (CD24 expression; UoCB1 cells, 20 μg of P1-TAT, six hours after incubation) | decrease of invasion potential (UoCB1 cells) | motility / closing of the gap (MCF7) | level of lactic acid in culture medium (HeLa cells) | CD24 protein expression (CD24 protein expression)
CC[C@]1(O)C[C@H]2CN(CCc3c([nH]c4ccccc34)[C@@](C(=O)OC)(c3cc4c(cc3OC)N(C=O)[C@H]3[C@@](O)(C(=O)OC)[C@H](OC(C)=O)[C@]5(CC)C=CCN6CC[C@]43[C@@H]65)C2)C1 [Vincristin, vincristin] | 90% | almost no effect | low green/red fluorescence ratio | significant increase | – | – | – | – | – | – | – | – | –
B1 | – | – | – | – | significantly reduced the motility | inhibited filling of the gap | marked CD24 down-regulation | inversely proportional | significantly downregulated | 2.4 fold | significantly reduced the motility | significantly lower level | down-regulated
